In US20080107658A1 (AstraZeneca / MedImmune, published 2008):
Read-outs that look alike come from different tables or passages of the source.

Columns and labels:
[1] = target: T1, human nerve growth factor (beta-NGF) (human, UniProt P01138 122-241); test: inhibition of human 125I-NGF binding to coated TrkA fusion protein
Protocol: (§1) Human TrkA and p75 receptor fusion proteins (R&D Systems) were diluted in Dulbecco's PBS (Gibco) to final concentrations of 10 nM and 0.6 nM, respectively. Maxisorp Nunc white 96 well microtitre plates (Nalge Nunc) were coated overnight at 4° C. with 100 μl/well of the diluted TrkA or p75 receptor solution. Plates were washed 3 times with PBS Tween 20, and then blocked with 200 μl/well 3% w/v bovine serum albumin (BSA) in PBS. Plates were washed after 1 h incubation at room temperature. Test antibodies were diluted to the desired concentration in assay buffer (0.5% w/v BSA and 0.05% v/v Tween 20 in PBS). […] Duplicate wells were prepared for each concentration of test sample. […] Bound radiolabel was quantified by addition of 100 μl/well Microscint 20 (Perkin Elmer) followed by counting using a Packard TopCount microplate liquid scintillation counter. Data were plotted and analysed using Graphpad Prism software to calculate IC₅₀ values for each experiment, and to derive the corresponding Ki according to the Cheng-Prusoff equation; Ki=IC₅₀/(1+D/Kd) Where: [0257]

[2] = target: T2, rat nerve growth factor (beta-NGF) (rat, UniProt P25427 122-241); test: inhibition of rat 125I-NGF binding to coated p75 fusion protein
Protocol: as §1

[3] = target: mouse nerve growth factor (mouse, UniProt P01139 122-241); test: cell-based or functional assay
[4] = target: T1, human nerve growth factor (beta-NGF); test: cell-based or functional assay
[5] = target: T2, rat nerve growth factor (beta-NGF); test: cell-based or functional assay
[6] = target: T2, rat nerve growth factor (beta-NGF); test: inhibition of rat 125I-NGF binding to coated TrkA fusion protein
Protocol: as §1

[7] = target: T1, human nerve growth factor (beta-NGF); test: inhibition of human 125I-NGF binding to coated p75 fusion protein
Protocol: as §1

[8] = target: T1, human nerve growth factor (beta-NGF); test: cell-based or functional assay; remark: listed apart in the source
[9] = target: T2, rat nerve growth factor (beta-NGF); test: cell-based or functional assay; remark: listed apart in the source
[10] = target: T1, human nerve growth factor (beta-NGF); test: cell-based or functional assay; remark: listed apart in the source
[11] = target: T2, rat nerve growth factor (beta-NGF); test: cell-based or functional assay; remark: listed apart in the source
[12] = target: T2, rat nerve growth factor (beta-NGF); test: rat 125I-NGF saturation binding to captured IgG4, one-site model
Protocol: (§2) Briefly, flashplates (Perkin Elmer SMP200) were coated with 100 μl/well of 2.2 μg/ml goat anti-human IgG (Sigma-Aldrich, UK) in phosphate buffered saline (PBS) for 1 h. Wells were washed with PBS and then blocked for 1 h with 200 μl/well PBS containing 3% w/v bovine serum albumin (BSA; Sigma-Aldrich, UK). […] Following incubation for 1 h plates were washed with PBS.
(§3) Plates were incubated overnight, and wells counted for 1 min on a gamma counter (TopCount NXT, Perkin Elmer). Specific binding was calculated according to the formula ‘specific binding=total binding−non-specific binding’. Binding curves were plotted and binding parameters determined according to a one-site saturation binding model using Prism software (GraphPad Software Inc., USA).

[13] = target: T1, human nerve growth factor (beta-NGF); test: inhibition of human 125I-NGF binding to coated TrkA fusion protein, Cheng-Prusoff, n=3
Protocol: (§4) Competition binding experiments were designed in order to calculate binding inhibition constant (Ki) values. […] Ki values were then derived using the Cheng-Prusoff equation.
as §1

[14] = target: T1, human nerve growth factor (beta-NGF); test: inhibition of human 125I-NGF binding to coated p75 fusion protein, Cheng-Prusoff, n=3
Protocol: as §4, §1

[15] = target: T2, rat nerve growth factor (beta-NGF); test: inhibition of rat 125I-NGF binding to coated TrkA fusion protein, Cheng-Prusoff, n=3
Protocol: as §4, §1

[16] = target: T2, rat nerve growth factor (beta-NGF); test: inhibition of rat 125I-NGF binding to coated p75 fusion protein, Cheng-Prusoff, n=3
Protocol: as §4, §1

[17] = target: T1, human nerve growth factor (beta-NGF); test: human 125I-NGF saturation binding to captured IgG4, one-site model
Protocol: as §2, §3

T2 sequence (P25427 122-241): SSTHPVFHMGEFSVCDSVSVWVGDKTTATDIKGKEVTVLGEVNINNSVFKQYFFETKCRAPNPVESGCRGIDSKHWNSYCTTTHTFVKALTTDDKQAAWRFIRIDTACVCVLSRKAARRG
Sequence of mouse nerve growth factor (P01139 122-241): as the sequence (P25427 122-241) above, with G40A, K50R, P61S, D94E, A117T counted along it
T1 sequence (P01138 122-241): as the sequence (P25427 122-241) above, with T3S, V6I, M9R, T37M, A60D, E65D, T92M, D94G, A117V, G120A counted along it

Molecule	IC50 [1] [nM]	Ki [1] [nM]	IC50 [2] [nM]	Ki [2] [nM]	IC50, FLIPR calcium mobilisation [3] [nM]	IC50 [6] [nM]	Ki [6] [nM]	IC50 [7] [nM]	Ki [7] [nM]	IC50, calcium mobilisation assay [8] [nM]	IC50, calcium mobilisation assay [9] [nM]	IC50, FLIPR calcium mobilisation [10] [nM]	IC50, FLIPR calcium mobilisation [11] [nM]	IC50, PC12 cell survival [10] [nM]	further results
1033G9 human IgG4 (antibody, V domains shown) VH: EVQLVQSGAEVRKPGSSVKVSCKASGDTSTLYSINWVRQVPGQGLEWMGAIIPIFGLTDYAQEFQGRLTITADESTNTAYMELTGLRSEDTAIYYCARNLFTTLSYWYFDLWGQGTLVTVSS VL: SSELTQDPAVSVALGQTVRITCQGDRLRSYYASWYQQKPGQAPVLVIYGKNNRPSGIPDRFSGSSSGNTASLTITGAQAEDEADYYCNSRDSSGNHVVFGGGTLLTVL										55	26				
1022E3 human IgG4 (antibody, V domains shown) VH: QVQLVQSGAEVKKPGASVKVSCKASGYSFINYSMHWVRQAPGQGLEWIGIINPGGDSTKYTQRFQDRVTMTWDTSTSTVYMDLSSLRSEDTAIYYCARGLHPIPMMLATINPIFAYWGQGTLVTVSS VL: SSELTQDPAVSVALGQTVRITCRGDSLRNYYANWYQQKPGQAPVLVIYDENKRPSGIPDRFSGSGSGNTASLTITGAQAEDEADYFCNSRDTFGYVRDVLFGGGTKVTVL										18	14				
1016A8 human IgG4 (antibody, V domains shown) VH: EVQLVQSGAELKKPGASVKVSCKASGYPFTSYYMHWVRQAPGQGLEWMGLVDPEDGETIYAEKFQGRVTITADTSTDTAYMELSSLRSEDTAVYSCATSSHNYGTASYYHYGMDVWGRGTMVTVSS VL: QSVLTQPPSASGTPGQRVTISCSGSSSNIGSNTVNWYQRLPGAAPQLLIYNNDQRPSGIPDRFSGSKSGTSGSLVISGLQSEDEADYYCASWDDSLNGRVFGGGTKLTVL										65	14				
1021E5 human IgG4 (antibody, V domains shown) VH: EVQLVQSGAEVKKPGSSVKVSCKASGGTFSTYGISWVRQAPGQGLEWIGGIIPIFDTGNSAQSFQGRVTITADESTSTAYMEVSSLRSDDTAVYYCASSSRIYDYAGGDHYYYDMDVWGQGTMVTVSS VL: QAVLTQPSSVSTPPGQKVTISCSGSSSNIGNNYVSWYQQLPGTAPKLLIYDNNKRPSGIPDRFSGSKSGTSATLGITGLQTGDEADYYCGTWDSSLSAWVFGGGTKLTVL					47					76	75	76	75	~1300	
1024C4 human IgG4 (antibody, V domains shown) VH: QVQLQESGGGVVQPGRSLRLSCAASGFAFKKYGLHWVRQAPGKGLEWVGVTSYDGSKNYYADSVKGRFTISRDNSKNTLYLQVNSLRPEDTAVYYCAKDGEVGDLHLVPFRQDSGLDVWGRGTLVTVSS VL: QSVLTQPPSVSVSPGQTASITCSGDNLGDKYVHWYQQKPGQSPVLVTYQDTKRPSGIPERFSGSNSGNTATLTISGTQAMDEAGYYCQAWDSSTVVFGGGTKLTVL										~410	~565				

The next lines start with results.

IC50 [1] [nM]	Ki [1] [nM]	IC50 [2] [nM]	Ki [2] [nM]	IC50, FLIPR calcium mobilisation [3] [nM]	IC50 [6] [nM]	Ki [6] [nM]	IC50 [7] [nM]	Ki [7] [nM]	IC50, calcium mobilisation assay [8] [nM]	IC50, calcium mobilisation assay [9] [nM]	IC50, FLIPR calcium mobilisation [10] [nM]	IC50, FLIPR calcium mobilisation [11] [nM]	Molecule	IC50, PC12 cell survival [10] [nM]	further results
1.94	1.76	2.94	2.67	1.4	1.48	1.38	0.304	0.252					mouse anti-human NGF MAB256 (R&D Systems) (antibody)		IC50, TF-1 cell proliferation [3]: 7 nM; IC50, FLIPR calcium mobilisation [4]: 0.76 nM; IC50, PC12 cell survival [4]: 23 nM; IC50, TF-1 cell proliferation [4]: 6 nM; IC50, calcium mobilisation assay [4]: 0.76 nM; IC50, FLIPR calcium mobilisation [5]: 0.79 nM; IC50, PC12 cell survival [5]: 44 nM; IC50, TF-1 cell proliferation [5]: 5 nM; IC50, calcium mobilisation assay [5]: 0.79 nM
0.368	0.333	0.587	0.532		0.31	0.288	0.57	0.472					mouse anti-mouse NGF MAB5260Z (Chemicon) (antibody)		
									2.5	5.5			1064F8 human IgG4 (antibody, V domains shown) VH: EVQLVQSGAEVKKPGSSVKVSCKASGGTFSSYAYTWVRQAPGQGLEWMGGIVPIFGSTNYAQKFQGRLTITADEFTSTAHMELSSLTSADTAVYYCAGGSDLYCSGGNCYGGGHYYYYMDVWGQGTTVTVSS VL: SSELTQDPAVSVALGQTVRITCTGTSSDVGGYNYVSWYQQHPGKAPKLMIYEGSKRPSGVSNRFSGSKSGNTASLTISGLQAEDEADYYCSSYTTRSTRVFGGGTKLTVL		
				54					30	61	30	61	1083H4 human IgG4 (antibody, V domains shown) VH: QMQLVQSGAEVKKTGSSVKVSCKASGYTFAYHYLHWVRQAPGQGLEWMGGIIPIFGTTNYAQRFQDRVTITADESTSTAYMELSSLRSEDTAVYYCASADYVWGSYRPDWYFDLWGRGTMVTVSS VL: QSVLTQPPSASGTPGQRVTISCSGSSSNIGSNTVNWYQRLPGAAPQLLIYNNDQRPSGIPDRFSGSKSGTSGSLVISGLQSEDEADYYCASWDDSLNGRVFGGGTKLTVL	~1100	
0.204	0.184	0.781	0.708	0.18	0.538	0.499	0.348	0.288			0.22	0.27	G1152H5 human IgG4 (antibody, V domains shown, tested as whole human IgG4; also called germlined 1152H5) VH: QVQLVQSGAEVKKPGSSVKVSCKASGGTFSTYGISWVRQAPGQGLEWMGGIIPIFDTGNSAQSFQGRVTITADESTSTAYMELSSLRSEDTAVYYCARSSRIYDMISSLQPYYDMDVWGQGTMVTVSS VL: QSVLTQPPSVSAAPGQKVTISCSGSSSNIGNNYVSWYQQLPGTAPKLLIYDNNKRPSGIPDRFSGSKSGTSATLGITGLQTGDEADYYCGTWDSSLSAWVFGGGTKLTVL	1.1	Kd [12]: 0.5 nM; pKi [13]: 9.59; pKi [14]: 9.56; IC50, TF-1 cell proliferation [10]: 0.44 nM; IC50, TF-1 cell proliferation [3]: 0.99 nM; IC50, PC12 cell survival [11]: 7.3 nM; IC50, TF-1 cell proliferation [11]: 1.44 nM; pKi [15]: 9.18; pKi [16]: 9.24; Kd [17]: 0.37 nM
0.068	0.061	0.302	0.274	0.26	0.151	0.14	0.188	0.155			0.33	0.29	1252A5 IgG4 (antibody, V domains shown, tested as whole human IgG4; also called germlined 1133C11) VH: QVQLVQSGAEVKKPGSSVKVSCKASGGTFSTYGISWVRQAPGQGLEWMGGIIPIFDTGNSAQSFQGRVTITADESTSTAYMELSSLRSEDTAVYYCARSSRIYDLNPSLTAYYDMDVWGQGTMVTVSS VL: QSVLTQPPSVSAAPGQKVTISCSGSSSNIGNNYVSWYQQLPGTAPKLLIYDNNKRPSGIPDRFSGSKSGTSATLGITGLQTGDEADYYCGTWDSSLSAWVFGGGTKLTVL	0.94	Kd [12]: 0.44 nM; pKi [13]: 10.3; pKi [14]: 9.85; IC50, TF-1 cell proliferation [10]: 0.42 nM; IC50, TF-1 cell proliferation [3]: 0.55 nM; IC50, PC12 cell survival [11]: 2.7 nM; IC50, TF-1 cell proliferation [11]: 0.72 nM; pKi [15]: 9.79; pKi [16]: 9.55; Kd [17]: 0.35 nM
